According to article PMC12561412, “Aptamer‐Mediated Artificial Synapses for Neuromorphic Modulation of Inflammatory Signaling via Organic Electrochemical Transistor”:

What was measured:
interferon-gamma (IFN-γ) = interferon-gamma (IFN-γ) (UniProt P01579 24-161); test: organic electrochemical transistor, aptamer on Au gate; no noticeable current change; SPR: PBS-P+ pH 7.4, 5% DMSO, CM5 chip, 30 uL/min, 60 s injections, temperature not stated; OECT: PBS 1x pH 7.4 (also albumin, serum), VDS 0.1 V; conditions: protein: commercial; chain copies: 2
interleukin-11 (IL-11) = molecular target: T1, interleukin-11 (IL-11) (UniProt P20809 22-199); test: as above; conditions: protein: commercial
T1 sequence: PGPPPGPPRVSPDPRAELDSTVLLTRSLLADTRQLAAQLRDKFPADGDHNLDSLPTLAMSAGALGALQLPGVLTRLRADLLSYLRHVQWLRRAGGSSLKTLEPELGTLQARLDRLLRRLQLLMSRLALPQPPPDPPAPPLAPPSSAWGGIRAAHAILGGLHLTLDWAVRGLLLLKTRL

interleukin-6 (IL-6) = interleukin-6 (IL-6) (UniProt P05231 30-212); test: organic electrochemical transistor, aptamer on Au gate; PBS; linear response 0.5 pM to 50 nM; also in ALB and serum; SPR: PBS-P+ pH 7.4, 5% DMSO, CM5 chip, 30 uL/min, 60 s injections, temperature not stated; OECT: PBS 1x pH 7.4 (also albumin, serum), VDS 0.1 V; conditions: protein: commercial
interleukin-6 (IL-6), sequence (P05231 30-212): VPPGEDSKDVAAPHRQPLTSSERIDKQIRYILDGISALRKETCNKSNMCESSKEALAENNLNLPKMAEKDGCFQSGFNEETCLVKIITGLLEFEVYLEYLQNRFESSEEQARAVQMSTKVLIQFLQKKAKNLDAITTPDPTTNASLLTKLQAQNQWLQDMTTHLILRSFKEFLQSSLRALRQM

interferon-gamma (IFN-γ), sequence (P01579 24-161): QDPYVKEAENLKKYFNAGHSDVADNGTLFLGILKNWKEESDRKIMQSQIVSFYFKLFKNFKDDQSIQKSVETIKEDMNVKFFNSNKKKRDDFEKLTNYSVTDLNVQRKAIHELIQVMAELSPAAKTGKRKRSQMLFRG

B1: IL-6 aptamer, thiolated, on Au gate (ssDNA)
DNA: GGTGGCAGGAGGACTATTTATTTGCTTTTCT
modifications: 5' C6 thiol, immobilized on gold via Au-S
Which results are given for B1?
binding result (interferon-gamma (IFN-γ)): no binding; binding result (interleukin-11 (IL-11)): no binding; binding result (interleukin-6 (IL-6)): binds
